Results reported in patent publication US7972771B2, “Human brain carboxypeptidase B” (priority 1999, dated 2011).

Legend:
40 kDa protease = target: T1, 40 kDa protease (Homo sapiens, UniProt Q96IY4, A169T/A260V/E345D/I347T/R257S); assay: Inhibition of natural brain APP degradation by the 40 kDa protease (Western blot, anti Aβ 1/14 or anti APP-CT antibody); format: biochemical; details: 37° C., 3 h
T1 construct: The 40 kDa proteolytic activity from fraction 19 was trapped in the column and recovered by elution; from tissue; host or cells: human hippocampus (autopsy brain)
T1 sequence (Q96IY4 23-360 isoform Q96IY4-2 A169T/R220S/A223V/E308D/I310T limits assumed): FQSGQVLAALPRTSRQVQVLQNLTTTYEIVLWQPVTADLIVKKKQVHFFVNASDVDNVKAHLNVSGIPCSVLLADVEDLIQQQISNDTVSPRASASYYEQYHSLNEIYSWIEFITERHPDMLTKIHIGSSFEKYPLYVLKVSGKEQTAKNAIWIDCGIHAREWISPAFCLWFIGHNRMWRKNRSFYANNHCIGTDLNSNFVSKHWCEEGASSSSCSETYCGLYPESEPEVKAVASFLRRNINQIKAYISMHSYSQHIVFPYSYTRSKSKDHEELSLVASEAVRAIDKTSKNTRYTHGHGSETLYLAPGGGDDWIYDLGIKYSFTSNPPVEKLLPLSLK
Procedure: After separation of proteins by SDS-PAGE, proteins on the gel was blotted onto a Hybond C nitrocellulose membrane (Amersham Pharmacia, UK), after which non-specific binding was blocked by immersing the membrane in 5% bovine serum albumin for 1 h in Tris-buffered saline: 100 mM Tris-HCl (pH 7.5), 140 mM NaCl and 0.1% Tween 20. The membrane next was washed for 45 min with three changes of the above buffer then incubated at 4° C. for 16 h with the first antibody (anti Aβ 1/14 antibody) appropriately diluted with Tris-buffered saline. After again washing it as above, the membrane was incubated at room temperature for 1 h with a horseradish peroxidase-labeled anti rabbit second antibody diluted 1:2000. After the washing, signals were detected on X-ray film using an ECL chemiluminescence detection system (Amersham Pharmacia, UK).

synthetic Aβ 1-40 = assay: Carboxypeptidase digestion of synthetic Aβ 1-40 (Western blot); format: biochemical; details: 0.01 pM to 0.2 pM enzyme, 0.1 pM substrate, 37° C., 16 hours
Description: (§1) In Western blot analysis, low-molecular weight peptides (in which several amino acids have shifted) can be confirmed by anti-Aβ-N-terminus antibody regarding the Aβ 1-40 substrate, however this cannot be confirmed by the anti-Aβ 40 fragment antibody. On the other hand, low-molecular weight peptides (in which several amino acids have shifted) can be confirmed by anti-Aβ-N-terminus antibody regarding the Aβ 1-42 substrate, however this cannot be confirmed by the anti-Aβ 42 fragment antibody.

synthetic Aβ 1-42 = assay: Carboxypeptidase digestion of synthetic Aβ 1-42 (Western blot); format: biochemical; details: 0.01 pM to 0.2 pM enzyme, 0.1 pM substrate, 37° C., 16 hours
Description: as §1

natural brain APP = assay: Proteolysis of natural brain APP by the isolated 40 kDa protease (Western blot); format: biochemical, human; details: 0.1 pmol APP, 0.005 to 0.1 pmol protease, 37° C., 3 h, 1 mM Zn2+; generates 5.5 kDa fragment
Procedure: In the proteolytic analysis of the fractions for natural brain APP, approximately 0.1 pmol of natural brain APP prepared from human hippocampus was incubated at 37° C. for 3 h with each fraction (approximately 0.05 pmol) in the presence of 1 mM Zn^2+. To obtain proteolytic activities of interest, each reaction mixture was loaded in parallel wells for SDS-PAGE then subjected to Western blot analysis using anti Aβ 1/14 antibody (Calbiochem) as follows.
After separation of proteins by SDS-PAGE, proteins on the gel was blotted onto a Hybond C nitrocellulose membrane (Amersham Pharmacia, UK), after which non-specific binding was blocked by immersing the membrane in 5% bovine serum albumin for 1 h in Tris-buffered saline: 100 mM Tris-HCl (pH 7.5), 140 mM NaCl and 0.1% Tween 20. The membrane next was washed for 45 min with three changes of the above buffer then incubated at 4° C. for 16 h with the first antibody (anti Aβ 1/14 antibody) appropriately diluted with Tris-buffered saline. […] After the washing, signals were detected on X-ray film using an ECL chemiluminescence detection system (Amersham Pharmacia, UK).
The brain APP substrate (approximately 0.1 pmol) was treated with the 40 kDa protease (0.005 to 0.1 pmol) at 37° C. for 3 h in the presence of 1 mM Zn^2+ to analyze the isolated 40 kDa protease. The reaction product analyzed by Western blotting with anti Aβ 1/14 antibody (FIG. 2). […]

[1] = Stability of proteolytic activity of native-PAGE fraction; format: physicochemical
Description: Of the 61 fractions analyzed, fraction 19 with a molecular mass of about 40 kDa and fraction 11 with a molecular mass of about 30 kDa had similar proteolytic activities. […] Fraction 19 with the 40 kDa molecular mass with proteolytic activity therefore was further purified.

## chondroitinase ABC
40 kDa protease; APP pretreated with 0.5 pmol chondroitinase ABC, FIG. 2 lane 3
  inhibition of brain APP degradation reaction: almost completely inhibited

## potato carboxypeptidase inhibitor: potato carboxypeptidase inhibitor (BioPur, Switzerland) (QQHADPICNKPCKTHDDCSGAWFCQACWNSARTCGPYVG)
40 kDa protease; 1 mM potato carboxypeptidase inhibitor, 1 mM Zn2+, FIG. 2 lane 4
  inhibition of brain APP degradation reaction: completely inhibited

B1: 40 kDa protein: 40 kDa protease purified from human hippocampal homogenate; brain carboxypeptidase B (SEQ ID NO: 2) (protein, listed as Homo sapiens)
chain: MKLCSLAVLVPIVLFCEQHVFAFQSGQVLAALPRTSRQVQVLQNLTTTYEIVLWQPVTADLIVKKKQVHFFVNASDVDNVKAHLNVSGIPCSVLLADVEDLIQQQISNDTVSPRASASYYEQYHSLNEIYSWIEFITERHPDMLTKIHIGSSFEKYPLYVLKVSGKEQTAKNAIWIDCGIHAREWISPAFCLWFIGHNRMWRKNRSFYANNHCIGTDLNSNFVSKHWCEEGASSSSCSETYCGLYPESEPEVKAVASFLRRNINQIKAYISMHSYSQHIVFPYSYTRSKSKDHEELSLVASEAVRAIDKTSKNTRYTHGHGSETLYLAPGGGDDWIYDLGIKYSFTSNPPVEKLLPLSLK
Synthetic Aβ 1-40
  formation of low-molecular weight peptides from Aβ 1-40: low-molecular weight peptides formed in a dose-dependent manner
Synthetic Aβ 1-42
  formation of low-molecular weight peptides from Aβ 1-42: low-molecular weight peptides formed in a dose-dependent manner
Natural brain APP
  degradation of natural brain APP: degraded natural brain APP

B2: fraction 11: native-PAGE fraction of about 30 kDa with proteolytic activity; mature form of HBCPB (protein)
chain: ASASYYEQYHSLNEIYSWIEFITERHPDMLTKIHIGSSFEKYPLYVLKVSGKEQTAKNAIWIDCGIHAREWISPAFCLWFIGHNRMWRKNRSFYANNHCIGTDLNRNFASKHWCEEGASSSSCSETYCGLYPESEPEVKAVASFLRRNINQIKAYISMHSYSQHIVFPYSYTRSKSKDHEELSLVASEAVRAIEKTSKNTRYTHGHGSETLYLAPGGGDDWIYDLGIKYSFTSNPPVEKLLPLSLK
[1]; 2 w at −20° C.
  activity after long-term storage: lost its activity
[1]; room temperature
  time to loss of proteolytic activity: ≤ 30 min
